Reference: article PMC12667410 (Cell chemical biology, 2024)

Tests used:
[1] = target: LgBiT Protein (LgBiT subunit of the NanoBiT luciferase; large, truncated fragment of NanoLuc) (Oplophorus gracilirostris); experiment: split reporter
SIRT5 = target: T1, SIRT5 (Homo sapiens, UniProt Q9NXA8); experiment: SIRTify cell-free assay, SIRT5; format: biochemical; conditions: ratio of IC50 values
T1 sequence (Q9NXA8 37-310): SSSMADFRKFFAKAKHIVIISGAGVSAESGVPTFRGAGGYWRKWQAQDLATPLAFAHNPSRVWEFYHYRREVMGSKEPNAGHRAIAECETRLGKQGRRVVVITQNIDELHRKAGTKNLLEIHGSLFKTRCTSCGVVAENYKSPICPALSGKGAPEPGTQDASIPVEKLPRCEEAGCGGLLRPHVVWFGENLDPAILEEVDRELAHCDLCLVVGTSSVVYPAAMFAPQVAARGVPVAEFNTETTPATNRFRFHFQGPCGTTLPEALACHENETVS

Compound	fold decrease in luminescent signal against unmodified p86 [1] [fold]	lower IC50 for SIRT5 deglutarylase compared to desuccinylase activity (SIRT5)	fold reduced affinity compared to p86 [1] [fold]
p86-Succinyl9: H2N-VSGWRLFK(KSuc)IS-OH (peptide)	1.7	–	–
p86-Succinyl8: H2N-VSGWRLF(KSuc)KIS-OH (peptide)	1.7	–	–
p86-Succinyl8,9: H2N-VSGWRLF(KSuc)(KSuc)IS-OH (peptide)	7.5	–	–
p86-Acetyl8,9: H2N-VSGWRLF(KAc)(KAc)IS-OH (peptide)	5.8	–	175

The remaining lines, values ahead:

fold decrease in luminescent signal against unmodified p86 [1] [fold]	lower IC50 for SIRT5 deglutarylase compared to desuccinylase activity (SIRT5)	fold reduced affinity compared to p86 [1] [fold]	Compound
1.1	–	–	p86-Acetyl9: H2N-VSGWRLFK(KAc)IS-OH (peptide)
1.1	–	–	p86-Acetyl8: H2N-VSGWRLF(KAc)KIS-OH (peptide)
–	approximately 3 fold	–	O=C(O)CCNC(=S)NCCCC[C@H](NS(=O)(=O)c1cccc(F)c1)C(=O)N[C@@H](Cc1c[nH]c2ccccc12)C(=O)NC1CCC1 [SIRT5 Inhibitor I (S5I1)]
